The text below walks through data of publication PMC4703215, “Structural Based Analyses of the JC Virus T-Antigen F258L Mutant Provides Evidence for DNA Dependent Conformational Changes in the C-Termini of Polyomavirus Origin Binding Domains”.

Data set [1] concerns the target T1, JCV T-ag OBD wt (JC virus (JCV), UniProt P03072 132-261).
T1 sequence: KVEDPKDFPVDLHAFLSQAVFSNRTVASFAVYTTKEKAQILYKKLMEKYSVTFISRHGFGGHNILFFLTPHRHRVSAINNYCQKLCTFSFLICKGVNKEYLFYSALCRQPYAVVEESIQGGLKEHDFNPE
Briefly: ITC; ITC: 10 mM Na phosphate pH 7.0, 50 mM NaCl, 5 mM DTT; anisotropy: 20 mM Hepes pH 7.4, 50 mM NaCl, 0.01% NP40, 0.1 mM DTT, 15 nM probe; temperature not stated. The conditions noted are these: protein: recombinant; tags: expressed from pGEX1λT (GST vector). On the technique in general: Isothermal titration calorimetry measures the heat released or taken up as one component is titrated into another.

The target in data set [2] is T1, JCV T-ag OBD wt. Briefly: fluorescence anisotropy; ITC: 10 mM Na phosphate pH 7.0, 50 mM NaCl, 5 mM DTT; anisotropy: 20 mM Hepes pH 7.4, 50 mM NaCl, 0.01% NP40, 0.1 mM DTT, 15 nM probe; temperature not stated. The conditions noted are these: protein: recombinant; tags: expressed from pGEX1λT (GST vector); label: 5' fluorescein (six-carbon linker) on one strand. Background: In fluorescence polarisation assays a small probe gives low polarisation when free and higher when bound to something large.

B1: Site II duplex, four GAGGC pentanucleotides (dsDNA)
DNA 1: TACAGGAGGCCGAGGCCGCCTCCGCCTCCAAGC
DNA 2: GCTTGGAGGCGGAGGCGGCCTCGGCCTCCTGTA
What is called Kd is the equilibrium constant for the complex coming apart. Take B1: in the data set with JCV T-ag OBD wt [1], the Kd was 172 nM.

B2: TBS probe, single GAGGC (dsDNA)
DNA 1: CCGAGGCCATTCTGAGAATTGAGC
DNA 2: GCTCAATTCTCAGAATGGCCTCGG
On to B2, for which the Kd with JCV T-ag OBD wt [2] is 93 ± 21 nM.
